The target in one assay is Pin1 WW domain (Homo sapiens, UniProt Q13526). The following applies: For eWW (Pin1 WW); read-out: Affinity if known; cited from earlier work.
The next assay deals with T1, Grb2-SH2 domain (Homo sapiens, UniProt P62993).
T1 construct: The SH2 domain of Grb2 (“Grb2-SH2” hereafter) is ˜98 residue autonomously folded domain
To be noted: For eSH2 (Grb2); read-out: Affinity if known; cited from earlier work.

Assay [1] concerns the target T2, δ-catenin peptide (PASPDSWV-COOH) (Homo sapiens, UniProt Q9UQB3).
T2 construct: yeast SUMO (N); made in house
The assay can be described thus: Surface plasmon resonance (SPR, BIAcore) analysis of motif binding, δ-catenin peptide. To be noted: for Kd: SPR; for Specificity Index: ratio of Kd for δ-catenin to Kd for ARVCF. An excerpt: (§1) Using semi-automated methods, the phage display library was sorted using an eight-residue motif (SEQ ID NO: 148) corresponding to the ARVCF C-terminus. […] The maximal motif/affinity concentrations are indicated. In B, C and F, the on and off rates are also shown on the left and right sides, respectively. […] After four rounds of sorting, two clones with high affinity were identified to the ARVCF peptide motif. ePDZ-a (SEQ ID NO: 149) and ePDZ-b (SEQ ID NO: 150) are thus (referred to as “enhanced PDZ-a” and “enhanced PDZ-b” or simply “ePDZ-a” and “ePDZ-b” respectively) potential affinity clamp candidates.
The binding specificity of the ePDZ clones was investigated. In addition to the ARVCF motif, wild-type erbin PDZ also binds to the C-terminus of δ-catenin with a low μM Kd. The two sequences differ only at positions outside the core recognition motif, DSWV (SEQ ID NO: 69) —COOH (Table 2). The affinity enhancement of ePDZ-a was similar for both targets. Remarkably, the ePDZ-b clone had very weak binding to δ-catenin, similar to the wild-type PDZ domain, showing that ePDZ-b discriminates between the two targets by ˜200 fold. Equally importantly, ePDZ-b discriminates amino acids outside the DSWV-COOH motif shared by the two peptides (Table 2), and thus, it expanded the size of the target motif. The improved specificity is consistent with the molecular affinity clamp design where the enhancer domain binds to the motif surface presented on the PDZ domain and thus can “read” the motif sequence (FIG. C2).

Assay [2] has as its target T3, ARVCF peptide (PQPVDSWV-COOH) (Homo sapiens, UniProt O00192).
T3 construct: made in house; host or cells: E. coli
The assay can be described thus: Surface plasmon resonance (SPR, BIAcore) analysis of motif binding, ARVCF peptide. The following applies: for koff / kon: for the ARVCF peptide; for Affinity Enhancement: ratio of Kd of parent protein (cpPDZFN) for ARVCF to that of the affinity clamp.
Excerpt: as §1
These two clones were characterized as soluble proteins.
One method to improve affinity of the affinity clamp is to improve the interaction interface of the enhancer domain (e.g. the FN3 domain). […] The two second-generation variants, ePDZ-b1 (SEQ ID NO: 151) and ePDZ-b2 (SEQ ID NO: 143), were prepared as protein samples and their binding properties were analyzed using SPR. […] The affinity enhancement primarily originated from reduced dissociation rates.
A disulfide-constrained peptide was used as an enhancer domain. A peptide-PDZ affinity clamp was designed in which the diversified peptide segment was N-terminal connected to the circularly permutated PDZ domain (cpPDZ) described above. (See, FIG. F1 showing an affinity clamp constructed with Cys-constrained peptide as an enhancer domain in which (A) is a schematic drawing of the affinity clamp. Note that the peptide is attached to the N-terminus of the interaction domain. (B, C) are saturation curves of the parent PDZ (B) and peptide-PDZ Affinity Clamp (C) determined using surface plasmon resonance (SPR). SPR experiments were performed in the equilibrium mode, and the SPR response is plotted as a function of the concentration of the target peptide. The target peptide fused to the yeast SUMO protein was used in these measurements. The curves show the best fit of the 1:1 binding model to the data. The Kd values are also shown.)

Assay [3] deals with T4, Ala-substituted ARVCF peptide (positions −7 to −4) (Homo sapiens, UniProt O00192, V958A).
T4 construct: The tested positions are −7 to −4 in the ARVCF peptide (PQPVDSWV-COOH; mutated positions are underlined); yeast SUMO (N)
The assay can be described thus: Alanine-scanning of the ARVCF peptide by SPR. The class given is binding. The following applies: ARVCF peptide mutant. The procedure: To complement the library sorting experiments described above, Ala-scanning experiments of the ARVCF peptide were performed. When the goal is to define differences in the ability of ePDZ-a and ePDZ-b1 to recognize the differences between the ARVCF and δ-catenin peptides, only those positions that differ between the two peptides are analyzed.
Consistent with the peptide library sorting results, the ePDZ-b family was sensitive to Ala substitution mutations at all positions between −4 and −7. […] The results are shown in terms of changes in free energy change (ΔG=−RT ln(Kd^mutant/Kd^wild type)). […] The tested positions are −7 to −4 in the ARVCF peptide (PQPVDSWV-COOH; mutated positions are underlined). For each mutant, binding affinity was determined using surface plasmon resonance as described previously for the wild-type ARVCF peptide (69).

The subject of assay [4] is ARVCF target peptide (SUMO fusion) in E. coli lysate. The assay can be described thus: Pull-down (immunoprecipitation) with biotinylated ePDZ's and streptavidin magnetic beads. The class given is binding. To be noted: biotinylated clamp, streptavidin magnetic beads, E. coli lysate/cell extracts. The source says:
(§2) The PDZ-FN3 affinity clamps functioned well in Western blotting and in immunoprecipitation (pull down) assays. […] Lane 6 is a negative control for the secondary, anti-FLAG antibody. In FIG. C6B, pull-down (immunoprecipitation), biotinylated ePDZ's and streptavidin (SA)-magnetic beads were used. The input (I), unbound (U), wash (W) and bound (B) fractions were separated with SDS-PAGE and detected with CBB. Note that this is not Western blotting, which would have given higher sensitivity and specificity. […] Note that most of nonspecific binding is due to the SA-magnetic beads (lane 13). […] It is noted that the relatively low recovery of the target in the pull-down assays may be due to the fact that the off-rate was optimized for these clamps (FIG. C3).
These Kd values and dissociation rates compare favorably to those for monoclonal antibodies. The reduced dissociation rate of an affinity clamp improves its usefulness in immunochemical applications.

Another assay deals with T5, ARVCF (Homo sapiens, UniProt O00192).
T5 construct: host or cells: mammalian cell lysate
T5 sequence (O00192 1-962): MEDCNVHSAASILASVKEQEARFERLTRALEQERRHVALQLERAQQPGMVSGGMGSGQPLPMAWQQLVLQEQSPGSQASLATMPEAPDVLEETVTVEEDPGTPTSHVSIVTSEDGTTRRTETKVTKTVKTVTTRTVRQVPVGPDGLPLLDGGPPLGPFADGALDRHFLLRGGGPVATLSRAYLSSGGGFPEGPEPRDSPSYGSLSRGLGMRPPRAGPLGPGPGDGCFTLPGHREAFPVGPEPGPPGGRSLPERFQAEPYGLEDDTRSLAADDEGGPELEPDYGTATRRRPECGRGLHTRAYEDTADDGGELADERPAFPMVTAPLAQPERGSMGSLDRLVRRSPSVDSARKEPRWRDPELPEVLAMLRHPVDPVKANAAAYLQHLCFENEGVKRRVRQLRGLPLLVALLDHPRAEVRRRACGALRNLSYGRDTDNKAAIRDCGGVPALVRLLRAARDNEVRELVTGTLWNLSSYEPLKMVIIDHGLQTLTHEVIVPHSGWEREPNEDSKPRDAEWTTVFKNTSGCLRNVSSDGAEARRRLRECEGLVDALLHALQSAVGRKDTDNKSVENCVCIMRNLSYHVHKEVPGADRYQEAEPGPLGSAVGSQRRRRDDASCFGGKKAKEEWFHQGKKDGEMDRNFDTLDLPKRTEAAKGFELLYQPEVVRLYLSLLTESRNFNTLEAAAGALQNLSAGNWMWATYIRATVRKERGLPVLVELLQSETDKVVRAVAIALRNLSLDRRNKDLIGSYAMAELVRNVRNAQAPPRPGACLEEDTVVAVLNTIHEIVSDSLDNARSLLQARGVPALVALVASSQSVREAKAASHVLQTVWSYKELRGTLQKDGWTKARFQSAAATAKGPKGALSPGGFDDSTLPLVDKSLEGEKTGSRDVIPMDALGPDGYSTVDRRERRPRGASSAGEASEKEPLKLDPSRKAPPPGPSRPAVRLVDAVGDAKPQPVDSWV
The assay can be described thus: Western blotting of ARVCF in mammalian cell lysate. The class given is binding. The following applies: vs commercial monoclonal antibody.

Assay [5] deals with SUMO-ARVCF fusion protein. The assay can be described thus: Western blotting of SUMO-ARVCF fusion protein in E. coli lysate. The following applies: E. coli lysate containing 5 nanograms SUMO-ARVCF. The class given is binding.
Excerpt: as §2

The next assay addresses T6, ARVCF peptide (Homo sapiens, UniProt O00192).
T6 construct: made in house; host or cells: E. coli
The assay can be described thus: IC50 for the ARVCF peptide (Table 4). The class given is binding.

The mark [6] stands for this setting: Table 4, read-out: Kd [nM] δ-catenin.
Where [7] appears, read: Table 4, SPR, read-out: Kd [nM] ARVCF.
Setting [8] is: Table 2, SPR, read-out: Kd, ARVCF PQPVDSWV

Like-named read-outs stand apart in the source and are kept apart here. Where only a bound is given, the exact number is not on record here.

T1 sequence (P62993 60-152 limits assumed): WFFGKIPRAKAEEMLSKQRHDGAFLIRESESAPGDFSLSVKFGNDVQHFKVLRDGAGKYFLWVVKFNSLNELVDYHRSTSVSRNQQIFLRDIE
Sequence of Pin1 WW domain (Q13526 5-39 limits assumed): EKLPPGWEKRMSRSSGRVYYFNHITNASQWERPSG

LYRpSPS [Cdc25c-S214]: the Kd in the assay with Pin1 WW domain is 72 µM.

For the molecule PPApTPP [Myt1-T412], at Pin1 WW domain, the Kd was 15 µM.

PSpYVNVQN [SHC (control)]: in the assay with Grb2-SH2 domain, the Kd was 0.018 µM.

As to SPQPEpYVNQPDVR [ErbB2 pY1139], the Kd at Grb2-SH2 domain was 0.076 µM.

As to STSpTPR [Myt1-T455], the Kd with Pin1 WW domain is 40 µM.

Turning to VNATpYVNVKCVA [c-MET pY1356], the Kd with Grb2-SH2 domain is 0.2 to 1 µM.

VPRpTPV [Cdc25c-T48]: the Kd with Pin1 WW domain is 8 µM.

As to YSPTpSPS [Polll-CTD-S5], the Kd with Pin1 WW domain is 34 µM.

With “ePDZ-b1: second-generation affinity-matured variant of ePDZ-b, SEQ ID NO: 151 (HYNYHYYS)”, the Kd in assay [1] (setting [6]) is greater than 10000 nM; in [2] (setting [7]) it was 5 nM. Also, in assay [1], the “Specificity Index” value is listed as greater than 2000. Further, in assay [2] (SPR), the koff is <3.7 × 10^−4 S^−1. For the same molecule, the kon in assay [2] (SPR) is 7.3 × 10^4 M^−1S^−1. Besides, the “Affinity Enhancement” value in assay [2] stood at 4960. Also, the “reduction in affinity on Ala substitution at position −4” value in assay [3] was “over 200 fold”.

With “ePDZ-b2: second-generation affinity-matured variant of ePDZ-b, SEQ ID NO: 143 (SYYGVS)”, the results for the Kd in assay [1] (setting [6]) and in assay [2] (setting [7]) were greater than 10000 nM and 4 nM, respectively. Also, in assay [1], the “Specificity Index” value is reported as greater than 2500. For the same molecule, in assay [4], the “capture of target in pull-down (immunoprecipitation)” value was “captured a target peptide from E. coli lysate in a highly specific and quantitative manner”. Besides, the koff in assay [2] (SPR) is recorded as <2.9 × 10^−4 S^−1. The kon in assay [2] (SPR) is on record as 7.0 × 10^4 M^−1S^−1. For the same molecule, the “Affinity Enhancement” value in assay [2] stood at 6200. Also, the “performance in Western blotting” value in the assay with ARVCF is reported as “superior to that of a commercially available monoclonal antibody”.

For “wt-PDZ: wild-type PDZ domain of Erbin (SEQ ID NO: 146) (YYDSHVS) [reference compound]”, the “discrimination between ARVCF peptide and δ-catenin peptide” value in assay [1] is listed as “almost equally”. The “dissociation rate (in words)” value in [2] (SPR) is given as “too fast to measure”. Moreover, the Kd in [2] (setting [8]) was roughly 10000 nM. The “detection of target in Western blotting” value in [5] is given as “did not”.

B1: circularly permutated PDZ domain: erbin PDZ with original termini joined by Asn-Gly linker, new termini between residues 20 and 21 (protein)
chain: PELGFSISGGVGGRGNPFRPDDDGIFVTRVQPEGPASKLLQPGDKIIQANGYSFINIEHGQAVSLLKTFQNTVELIIVREVGNGAKQEIRVRVEKD
Turning to B1, in [2] (SPR equilibrium mode, target peptide fused to yeast SUMO, read-out: dissociation constant (Kd), ARVCF peptide), the Kd came to 11000 ± 700 nM.

B2: ePDZ-b: affinity clamp: circularly permutated erbin PDZ fused to engineered FN3, SEQ ID NO: 150, selected for ARVCF peptide (protein)
chain: MKHHHHHHHHHHSSDYKDDDDKGENLYFQGSPELGFSISGGVGGRGNPFRPDDDGIFVTRVQPEGPASKLLQPGDKIIQANGYSFINIEHGQAVSLLKTFQNTVELIIVREVGNGAKQEIRVRVEKDGGSGGVSSVPTNLEVVAATPTSLLISWDAYYDSHVSYYRITYGETGGNSPVQEFTVPGSKSTATISGLKPGVDYTITVYAHYNYHYYSSPISINYRT
For B2, in [1], the “discrimination between ARVCF peptide and δ-catenin peptide” value is listed as roughly 200 fold. The Kd was greater than 10000 nM in assay [1] (Table 2, read-out: Kd, δ-catenin PASPDSWV); greater than 10000 nM in [1] (setting [6]); 56 nM in assay [2] (setting [8]); 56 nM in assay [2] (setting [7]). Besides, in [1], the “Specificity Index” value was greater than 178. In addition, the koff in assay [2] (SPR) is 1.1 × 10^−2 S^−1. Besides, in [2] (SPR), the kon is recorded as 1.9 × 10^5 M^−1S^−1. Further, the “Affinity Enhancement” value in assay [2] is on record as 520. Besides, in the assay with ARVCF peptide, inhibition was half-maximal at 0.059 µM (IC50). In assay [5], the “detection of target in Western blotting” value is on record as “detected the target”.

The record behind these values is patent US9885050B2, “Molecular affinity clamp technology and uses thereof” (The University of Chicago, priority 2007, dated 2018).
